This is an account of results in patent publication US20210206873A1.

Test [1] has as its target human Toll-like Receptor 9 (TLR9) (human) (UniProt Q9NR96). Nature of the test: intracellular flow, pDCs; PE isotype control, no block.
For test [2] the target is unchanged. In words: intracellular flow, B cells; PE isotype control, no block.

UniProt Q9NR96, sequence (Q9NR96 26-1032): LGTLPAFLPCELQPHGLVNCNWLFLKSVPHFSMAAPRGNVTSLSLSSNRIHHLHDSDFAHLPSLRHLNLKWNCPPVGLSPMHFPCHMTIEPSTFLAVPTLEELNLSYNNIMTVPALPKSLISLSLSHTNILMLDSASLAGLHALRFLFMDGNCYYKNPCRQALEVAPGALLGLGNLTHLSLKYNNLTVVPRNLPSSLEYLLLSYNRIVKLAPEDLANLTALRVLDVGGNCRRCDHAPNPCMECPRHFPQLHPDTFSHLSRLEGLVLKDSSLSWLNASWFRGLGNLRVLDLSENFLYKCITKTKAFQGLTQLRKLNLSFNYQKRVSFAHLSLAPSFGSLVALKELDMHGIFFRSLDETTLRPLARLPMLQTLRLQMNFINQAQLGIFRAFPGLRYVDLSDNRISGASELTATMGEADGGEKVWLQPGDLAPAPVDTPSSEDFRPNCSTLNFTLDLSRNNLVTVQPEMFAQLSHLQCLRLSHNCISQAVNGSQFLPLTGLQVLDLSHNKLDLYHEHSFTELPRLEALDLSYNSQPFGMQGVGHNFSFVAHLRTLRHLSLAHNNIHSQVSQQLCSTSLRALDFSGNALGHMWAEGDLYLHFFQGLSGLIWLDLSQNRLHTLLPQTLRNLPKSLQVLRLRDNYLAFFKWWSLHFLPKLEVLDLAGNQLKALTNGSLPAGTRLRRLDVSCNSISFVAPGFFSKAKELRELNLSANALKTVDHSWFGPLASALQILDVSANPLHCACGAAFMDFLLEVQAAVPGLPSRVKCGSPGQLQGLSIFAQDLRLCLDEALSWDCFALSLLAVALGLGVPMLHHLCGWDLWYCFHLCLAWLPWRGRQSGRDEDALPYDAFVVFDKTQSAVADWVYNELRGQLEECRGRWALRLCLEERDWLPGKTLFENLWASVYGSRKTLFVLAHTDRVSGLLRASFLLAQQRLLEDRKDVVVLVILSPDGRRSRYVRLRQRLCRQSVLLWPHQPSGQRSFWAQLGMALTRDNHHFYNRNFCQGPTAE

As to Rat IgG2b isotype control (antibody), the results for the MFI in test [1] and in test [2] were 138 and 52, respectively.
Regarding Rat IgG2a isotype control (antibody), the MFI turned out to be 490 in test [1] and 142 in test [2].
